Sequences and labels used below:
B1: Myosin-2 (Saccharomyces cerevisiae), P19524 (parent)
chain: MSFEVGTRCWYPHKELGWIGAEVIKNEFNDGKYHLELQLEDDEIVSVDTKDLNNDKDQSLPLLRNPPILEATEDLTSLSYLNEPAVLHAIKQRYSQLNIYTYSGIVLIATNPFDRVDQLYTQDMIQAYAGKRRGELEPHLFAIAEEAYRLMKNDKQNQTIVVSGESGAGKTVSAKYIMRYFASVEEENSATVQHQVEMSETEQKILATNPIMEAFGNAKTTRNDNSSRFGKYLEILFDKDTSIIGARIRTYLLERSRLVYQPPIERNYHIFYQLMAGLPAQTKEELHLTDASDYFYMNQGGDTKINGIDDAKEYKITVDALTLVGITKETQHQIFKILAALLHIGNIEIKKTRNDASLSADEPNLKLACELLGIDAYNFAKWVTKKQIITRSEKIVSNLNYSQALVAKDSVAKFIYSALFDWLVENINTVLCNPAVNDQISSFIGVLDIYGFEHFEKNSFEQFCINYANEKLQQEFNQHVFKLEQEEYVKEEIEWSFIEFNDNQPCIDLIENKLGILSLLDEESRLPAGSDESWTQKLYQTLDKSPTNKVFSKPRFGQTKFIVSHYALDVAYDVEGFIEKNRDTVSDGHLEVLKASTNETLINILEGLEKAAKKLEEAKKLELEQAGSKKPGPIRTVNRKPTLGSMFKQSLIELMNTINSTNVHYIRCIKPNADKEAWQFDNLMVLSQLRACGVLETIRISCAGFPSRWTFEEFVLRYYILIPHEQWDLIFKKKETTEEDIISVVKMILDATVKDKSKYQIGNTKIFFKAGMLAYLEKLRSNKMHNSIVMIQKKIRAKYYRKQYLQISQAIKYLQNNIKGFIIRQRVNDEMKVNCATLLQAAYRGHSIRANVFSVLRTITNLQKKIRKELKQRQLKQEHEYNAAVTIQSKVRTFEPRSRFLRTKKDTVVVQSLIRRRAAQRKLKQLKADAKSVNHLKEVSYKLENKVIELTQNLASKVKENKEMTERIKELQVQVEESAKLQETLENMKKEHLIDIDNQKSKDMELQKTIENNLQSTEQTLKDAQLELEDMVKQHDELKEESKKQLEELEQTKKTLVEYQTLNGDLQNEVKSLKEEIARLQTAMSLGTVTTSVLPQTPLKDVMGGGASNFNNMMLENSDLSPNDLNLKSRSTPSSGNNHIDSLSVDRENGVNATQINEELYRLLEDTEILNQEITEGLLKGFEVPDAGVAIQLSKRDVVYPARILIIVLSEMWRFGLTKQSESFLAQVLTTIQKVVTQLKGNDLIPSGVFWLANVRELYSFVVFALNSILTEETFKNGMTDEEYKEYVSLVTELKDDFEALSYNIYNIWLKKLQKQLQKKAINAVVISESLPGFSAGETSGFLNKIFANTEEYTMDDILTFFNSIYWCMKSFHIENEVFHAVVTTLLNYVDAICFNELIMKRNFLSWKRGLQLNYNVTRLEEWCKTHGLTDGTECLQHLIQTAKLLQVRKYTIEDIDILRGICYSLTPAQLQKLISQYQVADYESPIPQEILRYVADIVKKEAALSSSGNDSKGHEHSSSIFITPETGPFTDPFSLIKTRKFDQVEAYIPAWLSLPSTKRIVDLVAQQVVQDGH
partner: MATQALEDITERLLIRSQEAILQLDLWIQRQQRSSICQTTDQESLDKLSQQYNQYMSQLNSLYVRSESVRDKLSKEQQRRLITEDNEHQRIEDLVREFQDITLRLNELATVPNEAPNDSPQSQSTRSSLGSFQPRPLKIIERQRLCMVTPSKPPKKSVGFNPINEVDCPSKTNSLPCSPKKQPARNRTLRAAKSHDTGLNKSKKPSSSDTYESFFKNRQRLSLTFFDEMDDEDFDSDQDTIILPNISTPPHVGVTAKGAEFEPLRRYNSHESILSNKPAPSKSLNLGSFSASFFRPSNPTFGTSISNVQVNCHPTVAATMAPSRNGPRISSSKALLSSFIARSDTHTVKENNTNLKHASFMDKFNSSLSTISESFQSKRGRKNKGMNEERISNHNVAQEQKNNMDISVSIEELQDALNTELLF
B2: vacuole-related protein 17 (Saccharomyces cerevisiae), P25591 (parent)
chain: B1 partner

In the first assay the parent is B1. The following applies: with vac17_yeast VAC17, P25591.
On to D1297N, for which the “effect of a mutation on the interaction” value is recorded as “disrupting interaction strength”.
In the case of N1304S, the “effect of a mutation on the interaction” value is “disrupting interaction strength”.
The same measure, in the same setting: under N1304D stands “disrupting interaction strength”; under G1248D, “disrupting interaction strength”.
With L1301P, the “effect of a mutation on the interaction” value is on record as “disrupting interaction strength”.

A further assay covers variants of B1. The following applies: with vac17_yeast VAC17, P25591. This is another data set of the same source.
Turning to G1248D, the “effect of a mutation on the interaction” value is recorded as “decreasing interaction strength”.

The variants in a further assay derive from B1. The following applies: with vac17_yeast VAC17, P25591. The source holds these as a separate data set.
Consider G1248N, for which the “effect of a mutation on the interaction” value is “decreasing interaction strength”.

Variants of B2 are the subject of a further assay. The following applies: with myo2_yeast MYO2, P19524.
As for MATQALEDITERLLIRSQEAILQLDLWIQRQQRSSICQTTDQESLDKLSQQYNQYMSQLNSLYVRSESVRDKLSKEQQRRLITEDNEHQRIEDLVREFQDITLRLNELATVPNEAPNDSPQSQSTRSSLGSFQPRPLKIVERQRLCMVTPSKPPKKSVGFNPINEVDCPSKTNSLPCSPKKQPARNRTLRAAKSHDTGLNKSKKPSSSDTYESFFKNRQRLSLTFFDEMDDEDFDSDQDTIILPNISTPPHVGVTAKGAEFEPLRRYNSHESILSNKPAPSKSLNLGSFSASFFRPSNPTFGTSISNVQVNCHPTVAATMAPSRNGPRISSSKALLSSFIARSDTHTVKENNTNLKHASFMDKFNSSLSTISESFQSKRGRKNKGMNEERISNHNVAQEQKNNMDISVSIEELQDALNTELLF [I140V], the “effect of a mutation on the interaction” value is “with no effect”.

Values taken from IntAct's records for PubMed 12642614.
